Reference: the supplement of paper PMC12764529

Experiment: folding stability dG unfold (combined trypsin and chymotrypsin); higher = more stable
Description: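 Folding stability of de novo designed mini-proteins (<80 aa, no Cys; designed by TrROS, TrMRF, ProteinMPNN and the joint model) was measured by cDNA display proteolysis with trypsin and chymotrypsin. Each protease was used at 11 concentrations in a threefold dilution series plus a no-protease condition. K50 was inferred by Bayesian fitting of sequencing counts, and dG unfold was derived against a sequence-predicted unfolded-state K50 (Tsuboyama et al. method). Sequences shown include variable-length N-terminal GS-type padding (SAGGSAGG...) inside a display construct carrying a PA tag. Rows were kept only if the AF2 dimer inter-PAE was >15, to exclude likely homo-oligomers.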

Sequence | folding stability dG unfold
SAGGSAGGSAGGAMPSDVLSTTTEPVAPTGSKTVSAPDAVVTVTLDPNTPVATTKTYGVSAGGSAGGSAGGS [r10_965_JUSTAS] | < -1 kcal/mol
SAGGSAGGSAGGEKTIFIPPDNPEKLADEAQKKGLTVEREPNSWLKVNGKKIRIIIMPPSAGGSAGGSAGGS [r10_930_TrROS] | < -1 kcal/mol
SAGGSAGGSAGGEPEPIPFRIKPHDEDGKKKGTFPINPLQKKGIPAEEFADKNGFEIEISAGGSAGGSAGGS [r10_153_TrROS] | < -1 kcal/mol
SAGGSAGGSAGGGAKPNQPVKVKIKYELLREEKELLPDGSVKTKKEVKVEIEGYEDADFKSAGGSAGGSAGG [r7_919_TrMRF] | < -1 kcal/mol
SAGGSAGGSAGGGFEITLPDKPIKVLEARFIPEKKLVEVLAEHPDGVLVRGVFPPELKLGSAGGSAGGSAGG [r7_427_TrMRF] | < -1 kcal/mol
SAGGSAGGSAGGGHMIYVPPSATLEEAEKLAKELGIEDAEIIPVPEGEPLFFTPEWKLVSAGGSAGGSAGGS [r10_1083_JUSTAS] | < -1 kcal/mol
SAGGSAGGSAGGGKNRPVIPITEGDKDEAKEFADTFQKEWRRQNGEPAQNVDIDIVPTPSAGGSAGGSAGGS [r10_1216_TrROS] | < -1 kcal/mol
SAGGSAGGSAGGGKVYVFRAPDALVLVPVEENPDTDEFTVTVDPGGDDPDIAKKLAEALSAGGSAGGSAGGS [r10_582_TrMRF] | < -1 kcal/mol
SAGGSAGGSAGGGMTVEEDPSSNIVTERIEYPDSIVTITRKRTPNPSWVTLATTTTPLGSAGGSAGGSAGGS [r10_840_JUSTAS] | < -1 kcal/mol
SAGGSAGGSAGGGPGLSVTTTVLVPKDPSTSVLTVPLPPSATVTAVTPETNTVTVRTASSAGGSAGGSAGGS [r10_247_JUSTAS] | < -1 kcal/mol
SAGGSAGGSAGGGPMVTRTIPRGVVVTKAELKDDKPVKYTVVKEEPVPVTVRALPEELLSAGGSAGGSAGGS [r10_492_JUSTAS] | < -1 kcal/mol
SAGGSAGGSAGGGSSMPLIPRKIETVEKPFRLPNGDVVIETTEIDTDADVEIPSVEVVLKSAGGSAGGSAGG [r7_213_JUSTAS] | < -1 kcal/mol
SAGGSAGGSAGGGVRIKVEYPNNGQPHEFPIDENWTAESIKDKLEDRGLPPNHKITKIEPSAGGSAGGSAGG [r7_70_TrROS] | < -1 kcal/mol
SAGGSAGGSAGGIYEKAVEFAKAKGGKDIPVKIKYPDGSVKTLNVDDLPDLKSENVEIVPSAGGSAGGSAGG [r7_863_TrMRF] | < -1 kcal/mol
SAGGSAGGSAGGKIEVDVETERHDGRPYYEVEIRHPDNGKPVEIPMPMNNPEEALKAAKSAGGSAGGSAGGS [r10_271_TrROS] | < -1 kcal/mol
SAGGSAGGSAGGKIEVEEDPANGMYRVEIQFPENGKPIEVWVRPGRTLEKAKDKAKELMKSAGGSAGGSAGG [r7_138_TrROS] | < -1 kcal/mol
SAGGSAGGSAGGLTEEEILKKLGLSPDVELLEMPREPERGVYYVKVKKGEGPEEFVVEESAGGSAGGSAGGS [r10_17_JUSTAS] | < -1 kcal/mol
SAGGSAGGSAGGMELPNLVPVETVPVGDSTVRLYELPGKPLRVTVTENGDNVTVELEEPPSAGGSAGGSAGG [r7_940_JUSTAS] | < -1 kcal/mol
SAGGSAGGSAGGMKVVFNIHRPDSDEVLTVDDMEKLKETSLEELAKKLEEENGYPVEVVLSAGGSAGGSAGG [r7_259_JUSTAS] | < -1 kcal/mol
SAGGSAGGSAGGMLPNPKTIKVPLKPGETKEKVKEEAEKKFPPGKITVTVSEDGTATVLVSAGGSAGGSAGG [r7_273_JUSTAS] | < -1 kcal/mol
SAGGSAGGSAGGMRISIHHPKNGNPRHIPIDDIRNLPGPYKIHVEGPNPELAKEFLEQFSAGGSAGGSAGGS [r10_419_TrROS] | < -1 kcal/mol
SAGGSAGGSAGGMTVKEIAEKLGLPPGLKVEDIPLDPPNGYFEIEITHDDGPHTYRIPISAGGSAGGSAGGS [r10_17_TrROS] | < -1 kcal/mol

Sequence | folding stability dG unfold
SAGGSAGGSAGGMVSISVSEDPATGTYTVTATRTGAPRTVTVPVGASEAEARARVEAALSAGGSAGGSAGGS [r10_192_JUSTAS] | < -1 kcal/mol
SAGGSAGGSAGGNKIVIPFEELEEARENGDPHKARKLVRERGMDPEDVTIEIITPEALKESAGGSAGGSAGG [r7_7_TrROS] | < -1 kcal/mol
SAGGSAGGSAGGPERLVLASFIPGPRLLHVVEVSLDGVGASISPSVFSIHPDRPDEIEPVSAGGSAGGSAGG [r7_866_TrMRF] | < -1 kcal/mol
SAGGSAGGSAGGPIKIDVQVMPHDNEWYIMIRREYPYPDGKRQEREIMIPADNVKDLDDISAGGSAGGSAGG [r7_835_TrROS] | < -1 kcal/mol
SAGGSAGGSAGGPKIEIPMVHLHPNGTITVMRMKMEYDPNGKFEIKKMEMHTVPADDIKDSAGGSAGGSAGG [r7_521_TrROS] | < -1 kcal/mol
SAGGSAGGSAGGPNPRIIPLTFPVKDKEAVILLPPGVKPASIEVDPEDGRIRVNAVDPLSAGGSAGGSAGGS [r10_906_TrMRF] | < -1 kcal/mol
SAGGSAGGSAGGPPFQIHIRDKGEERTIPVDSPDDIKELLEEKGAEIKDVHPNSGTITVKSAGGSAGGSAGG [r7_726_TrROS] | < -1 kcal/mol
SAGGSAGGSAGGPPPEKAAAYLVKYRNPDGGPLGTRPVELPPDRPEVEHDPSFVSVEVASAGGSAGGSAGGS [r10_675_JUSTAS] | < -1 kcal/mol
SAGGSAGGSAGGPTVTYKPPSGNVRTVEVPASRPEVVAELKAAGGEVVVVDAETGEEVLLSAGGSAGGSAGG [r7_430_JUSTAS] | < -1 kcal/mol
SAGGSAGGSAGGQPITLPDANNGFKEVEIMPTPKKWRITAENPETGQKKEFPIEDPEAVSAGGSAGGSAGGS [r10_772_TrROS] | < -1 kcal/mol
SAGGSAGGSAGGRGVLLVFRLDGEVRPTPDGEPVLELTDLEVEEREVTVTRDADGVLHAGSAGGSAGGSAGG [r11_381_TrMRF] | < -1 kcal/mol
SAGGSAGGSAGGSGELELTVVSPLPDGTVKVTRYRVELPEDGLEITEVETEEVPPEEAGSAGGSAGGSAGGS [r4_389_TrMRF] | < -1 kcal/mol
SAGGSAGGSAGGSGELTMMMVEPNPDGRVKVRTFKIELPPGGLKIDEVEEKTIPPEDAKSAGGSAGGSAGGS [r4_389_TrROS] | < -1 kcal/mol
SAGGSAGGSAGGSGNFTIDPALLEEARAEAAAAGEALETIPLKVTRPGGETKTIDIKVGSAGGSAGGSAGGS [r4_367_JUSTAS] | < -1 kcal/mol
SAGGSAGGSAGGSGNGMKLVKKKEVVKEEGAVVKLPNGETIEVPPDETITVEIEEEVSLSAGGSAGGSAGGS [r4_26_JUSTAS] | < -1 kcal/mol
SAGGSAGGSAGGSGSMEPQVVLRVTDTRGGNPTVTIYSPDVPLPPSPTTTVEPRPVSLESAGGSAGGSAGGS [r4_107_JUSTAS] | < -1 kcal/mol
SAGGSAGGSAGGSMKISLEFKVPIYEEFPGKEKPVEEVEVPVEVPENNEEEAEKIKKELSAGGSAGGSAGGS [r4_153_JUSTAS] | < -1 kcal/mol
SAGGSAGGSAGGSMVAYITTKGKKLEIEVPEDLPEEIKEELKKKGIPIESITFEEVEPESAGGSAGGSAGGS [r10_405_JUSTAS] | < -1 kcal/mol
SAGGSAGGSAGGSMVTTKDPNSPVTYTLVPRPTPEELVVKTTTNPDGTPTVTLLPASLLSAGGSAGGSAGGS [r4_434_JUSTAS] | < -1 kcal/mol
SAGGSAGGSAGGSMYRIEIKMPNNPRTIWVPPDELPDDDLEEIAKENFPNIDKIKVWRWSAGGSAGGSAGGS [r4_235_TrROS] | < -1 kcal/mol
SAGGSAGGSAGGSPEELAAAIRAEGREAEIEVTPDEVTIRLTAPDGRRSTLTVPRAALASAGGSAGGSAGGS [r10_1029_JUSTAS] | < -1 kcal/mol
SAGGSAGGSAGGSPFTIRNPNGMQVRIDDFDPEEGKVKIEIEMPNKPVEYPIPLDDIIFSAGGSAGGSAGGS [r4_110_TrROS] | < -1 kcal/mol
